Measured values: the supplement of paper PMC9112550, “Optimization of the antimicrobial peptide Bac7 by deep mutational scanning” (BMC Biology, 2022)

What follows are sequences tested on Escherichia coli TOP10 (assay: shrunken log2 fold change of peptide-encoding DNA abundance (4.5 h post-induction vs induction); higher = less antimicrobial activity (less host growth inhibition)). Conditions: time post-induction: 4.5 h; library: site-saturation at positions 5, 18, 19, 20.
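Note: peptides expressed intracellularly from a pBAD plasmid library in pooled LB shake-flask culture, induced with 0.3% L-arabinose, DNA abundance read by NGS, three biological replicates, DESeq2 with apeglm shrinkage.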

Question: For RRIRIRPPRLPRPRPRPKTAPRP, which “shrunken log2 fold change” value is on record?
Answer: Its value is -0.143.

Question: How did the “shrunken log2 fold change” value turn out when RRIRIRPPRLPRPRPRPKTMPRP was run?
Answer: Its value is -0.198.

Question: Which “shrunken log2 fold change” value does the source give for RRIRIRPPRLPRPRPRPKTNPRP here?
Answer: The value was -0.334.

Question: For RRIRIRPPRLPRPRPRPKVHPRP, which “shrunken log2 fold change” value is on record?
Answer: The value was -0.094.

Question: For RRIRIRPPRLPRPRPRPKWCPRP, which “shrunken log2 fold change” value is on record?
Answer: Its value is -0.317.

Question: For RRIRIRPPRLPRPRPRPLAFPRP, which “shrunken log2 fold change” value is on record?
Answer: The value was -0.302.

Question: How did the “shrunken log2 fold change” value turn out when RRIRIRPPRLPRPRPRPLAMPRP was run?
Answer: The value was -0.159.

Question: For RRIRIRPPRLPRPRPRPLAQPRP, which “shrunken log2 fold change” value is on record?
Answer: The value was -0.116.

Question: How did the “shrunken log2 fold change” value turn out when RRIRIRPPRLPRPRPRPLCCPRP was run?
Answer: Its value is -0.317.

Question: For RRIRIRPPRLPRPRPRPLCPPRP, which “shrunken log2 fold change” value is on record?
Answer: Its value is -0.502.

Question: How did the “shrunken log2 fold change” value turn out when RRIRIRPPRLPRPRPRPLDLPRP was run?
Answer: The value was -0.415.

Question: For RRIRIRPPRLPRPRPRPLDNPRP, which “shrunken log2 fold change” value is on record?
Answer: The value was 0.0097.

Question: RRIRIRPPRLPRPRPRPLEFPRP was tested. Which “shrunken log2 fold change” value did it give?
Answer: Its value is -0.196.

Question: With RRIRIRPPRLPRPRPRPLFGPRP as the sequence, how does the “shrunken log2 fold change” value read?
Answer: Its value is -0.102.

Question: RRIRIRPPRLPRPRPRPLFQPRP was tested. Which “shrunken log2 fold change” value did it give?
Answer: The value was -0.394.

Question: For RRIRIRPPRLPRPRPRPLGFPRP, which “shrunken log2 fold change” value is on record?
Answer: Its value is -0.393.

Question: With RRIRIRPPRLPRPRPRPLGGPRP as the sequence, how does the “shrunken log2 fold change” value read?
Answer: The value was 0.00908.

Question: For RRIRIRPPRLPRPRPRPLHAPRP, which “shrunken log2 fold change” value is on record?
Answer: The value was 0.00821.

Question: Which “shrunken log2 fold change” value does the source give for RRIRIRPPRLPRPRPRPLHLPRP here?
Answer: The value was -1.08.

Question: With RRIRIRPPRLPRPRPRPLIAPRP as the sequence, how does the “shrunken log2 fold change” value read?
Answer: Its value is -0.24.

Question: For RRIRIRPPRLPRPRPRPLLAPRP, which “shrunken log2 fold change” value is on record?
Answer: Its value is 0.185.

Question: How did the “shrunken log2 fold change” value turn out when RRIRIRPPRLPRPRPRPLLDPRP was run?
Answer: The value was -0.444.

Question: For RRIRIRPPRLPRPRPRPLMAPRP, which “shrunken log2 fold change” value is on record?
Answer: Its value is -0.408.

Question: RRIRIRPPRLPRPRPRPLMQPRP was tested. Which “shrunken log2 fold change” value did it give?
Answer: Its value is -0.564.

Question: RRIRIRPPRLPRPRPRPLPHPRP was tested. Which “shrunken log2 fold change” value did it give?
Answer: The value was -0.0305.

Question: How did the “shrunken log2 fold change” value turn out when RRIRIRPPRLPRPRPRPLPIPRP was run?
Answer: The value was -0.0341.

Question: RRIRIRPPRLPRPRPRPLPLPRP was tested. Which “shrunken log2 fold change” value did it give?
Answer: The value was 0.0472.

Question: With RRIRIRPPRLPRPRPRPLRLPRP as the sequence, how does the “shrunken log2 fold change” value read?
Answer: Its value is 0.281.

Question: Which “shrunken log2 fold change” value does the source give for RRIRIRPPRLPRPRPRPLSAPRP here?
Answer: The value was -0.112.

Question: Which “shrunken log2 fold change” value does the source give for RRIRIRPPRLPRPRPRPLSKPRP here?
Answer: The value was -0.901.

Question: With RRIRIRPPRLPRPRPRPLSVPRP as the sequence, how does the “shrunken log2 fold change” value read?
Answer: The value was -0.254.

Question: Which “shrunken log2 fold change” value does the source give for RRIRIRPPRLPRPRPRPLTVPRP here?
Answer: The value was -0.114.

Question: With RRIRIRPPRLPRPRPRPLVAPRP as the sequence, how does the “shrunken log2 fold change” value read?
Answer: The value was -0.0566.

Question: Which “shrunken log2 fold change” value does the source give for RRIRIRPPRLPRPRPRPLVQPRP here?
Answer: The value was -0.884.

Question: How did the “shrunken log2 fold change” value turn out when RRIRIRPPRLPRPRPRPLVYPRP was run?
Answer: Its value is -0.592.

Question: Which “shrunken log2 fold change” value does the source give for RRIRIRPPRLPRPRPRPLWAPRP here?
Answer: Its value is -0.174.

Question: RRIRIRPPRLPRPRPRPLWLPRP was tested. Which “shrunken log2 fold change” value did it give?
Answer: The value was -0.208.

Question: RRIRIRPPRLPRPRPRPLWNPRP was tested. Which “shrunken log2 fold change” value did it give?
Answer: Its value is -0.598.

Question: Which “shrunken log2 fold change” value does the source give for RRIRIRPPRLPRPRPRPLYPPRP here?
Answer: The value was -0.561.

Question: Which “shrunken log2 fold change” value does the source give for RRIRIRPPRLPRPRPRPMADPRP here?
Answer: Its value is -0.0382.

Question: Which “shrunken log2 fold change” value does the source give for RRIRIRPPRLPRPRPRPMASPRP here?
Answer: The value was -0.00783.

Question: How did the “shrunken log2 fold change” value turn out when RRIRIRPPRLPRPRPRPMCHPRP was run?
Answer: Its value is -0.316.

Question: With RRIRIRPPRLPRPRPRPMCWPRP as the sequence, how does the “shrunken log2 fold change” value read?
Answer: Its value is -0.00326.

Question: Which “shrunken log2 fold change” value does the source give for RRIRIRPPRLPRPRPRPMCYPRP here?
Answer: Its value is -1.

Question: How did the “shrunken log2 fold change” value turn out when RRIRIRPPRLPRPRPRPMDDPRP was run?
Answer: Its value is 0.0135.

Question: RRIRIRPPRLPRPRPRPMDGPRP was tested. Which “shrunken log2 fold change” value did it give?
Answer: The value was -0.108.

Question: RRIRIRPPRLPRPRPRPMFEPRP was tested. Which “shrunken log2 fold change” value did it give?
Answer: The value was -0.0768.

Question: How did the “shrunken log2 fold change” value turn out when RRIRIRPPRLPRPRPRPMFGPRP was run?
Answer: Its value is -0.0865.

Question: RRIRIRPPRLPRPRPRPMKGPRP was tested. Which “shrunken log2 fold change” value did it give?
Answer: Its value is -0.0335.

Question: RRIRIRPPRLPRPRPRPMLDPRP was tested. Which “shrunken log2 fold change” value did it give?
Answer: The value was 0.0726.

Question: With RRIRIRPPRLPRPRPRPMMDPRP as the sequence, how does the “shrunken log2 fold change” value read?
Answer: Its value is -0.132.

Question: With RRIRIRPPRLPRPRPRPMMYPRP as the sequence, how does the “shrunken log2 fold change” value read?
Answer: Its value is -0.13.

Question: Which “shrunken log2 fold change” value does the source give for RRIRIRPPRLPRPRPRPMNIPRP here?
Answer: The value was -0.0512.

Question: For RRIRIRPPRLPRPRPRPMPMPRP, which “shrunken log2 fold change” value is on record?
Answer: Its value is -0.0159.

Question: Which “shrunken log2 fold change” value does the source give for RRIRIRPPRLPRPRPRPMPQPRP here?
Answer: The value was -0.133.

Question: How did the “shrunken log2 fold change” value turn out when RRIRIRPPRLPRPRPRPMPYPRP was run?
Answer: Its value is -0.0219.

Question: How did the “shrunken log2 fold change” value turn out when RRIRIRPPRLPRPRPRPMQAPRP was run?
Answer: The value was -0.00238.

Question: For RRIRIRPPRLPRPRPRPMRPPRP, which “shrunken log2 fold change” value is on record?
Answer: The value was 0.194.

Question: Which “shrunken log2 fold change” value does the source give for RRIRIRPPRLPRPRPRPMTCPRP here?
Answer: The value was -0.00783.

Question: With RRIRIRPPRLPRPRPRPMTDPRP as the sequence, how does the “shrunken log2 fold change” value read?
Answer: The value was -0.91.

Question: With RRIRIRPPRLPRPRPRPMTYPRP as the sequence, how does the “shrunken log2 fold change” value read?
Answer: The value was -0.0592.

Question: RRIRIRPPRLPRPRPRPMWDPRP was tested. Which “shrunken log2 fold change” value did it give?
Answer: Its value is 0.205.

Question: How did the “shrunken log2 fold change” value turn out when RRIRIRPPRLPRPRPRPMWIPRP was run?
Answer: The value was -0.208.

Question: With RRIRIRPPRLPRPRPRPMWVPRP as the sequence, how does the “shrunken log2 fold change” value read?
Answer: Its value is -0.11.

Question: For RRIRIRPPRLPRPRPRPNAAPRP, which “shrunken log2 fold change” value is on record?
Answer: The value was -0.014.

Question: For RRIRIRPPRLPRPRPRPNASPRP, which “shrunken log2 fold change” value is on record?
Answer: Its value is 0.109.

Question: Which “shrunken log2 fold change” value does the source give for RRIRIRPPRLPRPRPRPNCIPRP here?
Answer: The value was -0.408.

Question: How did the “shrunken log2 fold change” value turn out when RRIRIRPPRLPRPRPRPNCWPRP was run?
Answer: The value was 0.0114.

Question: Which “shrunken log2 fold change” value does the source give for RRIRIRPPRLPRPRPRPNEQPRP here?
Answer: Its value is 0.0369.

Question: Which “shrunken log2 fold change” value does the source give for RRIRIRPPRLPRPRPRPNETPRP here?
Answer: Its value is -0.0216.

Question: Which “shrunken log2 fold change” value does the source give for RRIRIRPPRLPRPRPRPNEYPRP here?
Answer: The value was -0.182.

Question: How did the “shrunken log2 fold change” value turn out when RRIRIRPPRLPRPRPRPNFEPRP was run?
Answer: Its value is -0.218.

Question: For RRIRIRPPRLPRPRPRPNGDPRP, which “shrunken log2 fold change” value is on record?
Answer: Its value is 8.33e-05.

Question: How did the “shrunken log2 fold change” value turn out when RRIRIRPPRLPRPRPRPNHSPRP was run?
Answer: The value was -0.639.

Question: For RRIRIRPPRLPRPRPRPNHWPRP, which “shrunken log2 fold change” value is on record?
Answer: Its value is 0.0534.
